Consider 30 variants from the RNAGym collection of RNA variant scans (doi:10.1093/molbev/msab373).

The labels stand for the following.
B1: Azoarcus group I ribozyme (parent)
chain: GUGCCUUGCGCCGGGAAACCACGCAAGGGAUGGUGUCAAAUUCGGCGAAACCUAAGCGCCCGCCCGGGCGUAUGGCAACGCCGAGCCAAGCUUCGGCGCCUGCGCCGAUGAAGGUGUAGAGACUAGACGGCACCCACCUAAGGCAAACGCUAUGGUGAAGGCAUAGUCCAGGGAGUGGCGAAAGUCACACAAACCGG

The data set covers variants of B1. Description: reverse-splicing fitness (ratio to wild type); higher = more active; in vitro selection; Mg2+ level not given. Summed up: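 An in vitro group I ribozyme library with randomized positions was T7-transcribed and gel-purified. In triplicate, 10 pmol RNA in EPPS pH 7.5 was reacted with 50 pmoles of a 30-nt RNA substrate for 1 h at 37 °C across several added MgCl2 levels (1–48 mM), then stopped with EDTA. Products were reverse transcribed from a substrate-complementary primer, PCR-amplified and sequenced (HiSeq 4000). Fitness is a variant's read proportion after selection over that before, normalised to wild type.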
As for GUGCCUUGCGCCGGGAAACCACGCAAGGGAUGGUGUCAAAUUCGGCGAAACCUAAGCGCCCGCCCGGGCGUAUGGCAACGCAGAGCCAAGCUUCGGCGCCUGCGCCGAUGUAGGUGUAGGGACUAGACGGCACCCACCUAAGGCCAACGCUAUGGUGAAGGCAUAGUCCAGGGAGUGGCGAAAGUCACACAAACCGG, the reverse-splicing fitness came to 0.0126.

Consider GUGCCUUGCGCCGGGAAACCACGCAAGGGAUGGUGUCAAAUUCGGCGAAACCUAAGCGCCCGCCCGGGCGUAUGGCAACGCAGAGCCAAGCUUCGGCGCCUGCGCCGAUGUAGGUGUAGGGACUAGACGGCACCCACCUAAGGCCAACGAUAUGGUGAAGGCAUAGUCCAGGGAGCGGCGAAAGUCACACAAACCGG, for which the reverse-splicing fitness came out at 0.0098.

On to GUGCCUUGCGCCGGGAAACCACGCAAGGGAUGGUGUCAAAUUCGGCGAAACCUAAGCGCCCGCCCGGGCGUAUGGCAACGCAGAGCCAAGCUUCGGCGCCUGCGCCGAUGUAGGUGUAGGGACUAGACGGCACCCACCUAAGGCCAACGAUAUGGUGAAGGCAUAGUCCAGGGAGGGGCGAAAGUCACACAAACCGG, for which the reverse-splicing fitness came out at 0.00549.

For the variant GUGCCUUGCGCCGGGAAACCACGCAAGGGAUGGUGUCAAAUUCGGCGAAACCUAAGCGCCCGCCCGGGCGUAUGGCAACGCAGAGCCAAGCUUCGGCGCCUGCGCCGAUGUAGGUGUAGGGACUAGACGGCACCCACCUAAGGCCAACGAUAUGGUGAAGGCAUAGUCCAGGGAGAGGCGAAAGUCACACAAACCGG, the reverse-splicing fitness was found to be 0.00932.

Turning to GUGCCUUGCGCCGGGAAACCACGCAAGGGAUGGUGUCAAAUUCGGCGAAACCUAAGCGCCCGCCCGGGCGUAUGGCAACGCAGAGCCAAGCUUCGGCGCCUGCGCCGAUGUAGGUGUAGGGACUAGACGGCACCCACCUAAGGCCAACGGUAUGGUGAAGGCAUAGUCGAGGGAGCGGCGAAAGUCACACAAACCGG, the reverse-splicing fitness turned out to be 0.00725.

On to GUGCCUUGCGCCGGGAAACCACGCAAGGGAUGGUGUCAAAUUCGGCGAAACCUAAGCGCCCGCCCGGGCGUAUGGCAACGCAGAGCCAAGCUUCGGCGCCUGCGCCGAUGUAGGUGUAGGGACUAGACGGCACCCACCUAAGGCCAACGGUAUGGUGAAGGCAUAGUCGAGGGAGGGGCGAAAGUCACACAAACCGG, for which the reverse-splicing fitness worked out at 0.00452.

On to GUGCCUUGCGCCGGGAAACCACGCAAGGGAUGGUGUCAAAUUCGGCGAAACCUAAGCGCCCGCCCGGGCGUAUGGCAACGCAGAGCCAAGCUUCGGCGCCUGCGCCGAUGUAGGUGUAGGGACUAGACGGCACCCACCUAAGGCCAACGGUAUGGUGAAGGCAUAGUCGAGGGAGAGGCGAAAGUCACACAAACCGG, for which the reverse-splicing fitness worked out at 0.00863.

GUGCCUUGCGCCGGGAAACCACGCAAGGGAUGGUGUCAAAUUCGGCGAAACCUAAGCGCCCGCCCGGGCGUAUGGCAACGCAGAGCCAAGCUUCGGCGCCUGCGCCGAUGUAGGUGUAGGGACUAGACGGCACCCACCUAAGGCCAACGGUAUGGUGAAGGCAUAGUCAAGGGAGGGGCGAAAGUCACACAAACCGG: the reverse-splicing fitness turned out to be 0.00554.

With GUGCCUUGCGCCGGGAAACCACGCAAGGGAUGGUGUCAAAUUCGGCGAAACCUAAGCGCCCGCCCGGGCGUAUGGCAACGCAGAGCCAAGCUUCGGCGCCUGCGCCGAUGUAGGUGUAGGGACUAGACGGCACCCACCUAAGGCCAACGGUAUGGUGAAGGCAUAGUCAAGGGAGAGGCGAAAGUCACACAAACCGG, the reverse-splicing fitness was found to be 0.00838.

As for GUGCCUUGCGCCGGGAAACCACGCAAGGGAUGGUGUCAAAUUCGGCGAAACCUAAGCGCCCGCCCGGGCGUAUGGCAACGCAGAGCCAAGCUUCGGCGCCUGCGCCGAUGUAGGUGUAGGGACUAGACGGCACCCACCUAAGGCCAACGGUAUGGUGAAGGCAUAGUCAAGGGAGCGGCGAAAGUCACACAAACCGG, the reverse-splicing fitness worked out at 0.00639.

As for GUGCCUUGCGCCGGGAAACCACGCAAGGGAUGGUGUCAAAUUCGGCGAAACCUAAGCGCCCGCCCGGGCGUAUGGCAACGCAGAGCCAAGCUUCGGCGCCUGCGCCGAUGUAGGUGUAGCGACUAGACGGCACCCACCUAAGGCAAACGCUAUGGUGAAGGCAUAGUCCAGGGAGGGGCGAAAGUCACACAAACCGG, the reverse-splicing fitness turned out to be 0.00616.

For the variant GUGCCUUGCGCCGGGAAACCACGCAAGGGAUGGUGUCAAAUUCGGCGAAACCUAAGCGCCCGCCCGGGCGUAUGGCAACGCAGAGCCAAGCUUCGGCGCCUGCGCCGAUGUAGGUGUAGCGACUAGACGGCACCCACCUAAGGCAAACGCUAUGGUGAAGGCAUAGUCCAGGGAGCGGCGAAAGUCACACAAACCGG, the reverse-splicing fitness is 0.0279.

With GUGCCUUGCGCCGGGAAACCACGCAAGGGAUGGUGUCAAAUUCGGCGAAACCUAAGCGCCCGCCCGGGCGUAUGGCAACGCAGAGCCAAGCUUCGGCGCCUGCGCCGAUGUAGGUGUAGGGACUAGACGGCACCCACCUAAGGCAAACGCUAUGGUGAAGGCAUAGUCCAGGGAGUGGCGAAAGUCACACAAACCGG, the reverse-splicing fitness worked out at 0.0152.

Turning to GUGCCUUGCGCCGGGAAACCACGCAAGGGAUGGUGUCAAAUUCGGCGAAACCUAAGCGCCCGCCCGGGCGUAUGGCAACGCAGAGCCAAGCUUCGGCGCCUGCGCCGAUGUAGGUGUAGGGACUAGACGGCACCCACCUAAGGCCAACGAUAUGGUGAAGGCAUAGUCCAGGGAGUGGCGAAAGUCACACAAACCGG, the reverse-splicing fitness was determined as 0.00759.

In the case of GUGCCUUGCGCCGGGAAACCACGCAAGGGAUGGUGUCAAAUUCGGCGAAACCUAAGCGCCCGCCCGGGCGUAUGGCAACGCAGAGCCAAGCUUCGGCGCCUGCGCCGAUGUAGGUGUAGGGACUAGACGGCACCCACCUAAGGCCAACGGUAUGGUGAAGGCAUAGUCCAGGGAGUGGCGAAAGUCACACAAACCGG, the reverse-splicing fitness came to 0.00667.

GUGCCUUGCGCCGGGAAACCACGCAAGGGAUGGUGUCAAAUUCGGCGAAACCUAAGCGCCCGCCCGGGCGUAUGGCAACGCAGAGCCAAGCUUCGGCGCCUGCGCCGAUGUAGGUGUAGGGACUAGACGGCACCCACCUAAGGCCAACGAUAUGGUGAAGGCAUAGUCAAGGGAGUGGCGAAAGUCACACAAACCGG: the reverse-splicing fitness was determined as 0.00789.

Regarding GUGCCUUGCGCCGGGAAACCACGCAAGGGAUGGUGUCAAAUUCGGCGAAACCUAAGCGCCCGCCCGGGCGUAUGGCAACGCAGAGCCAAGCUUCGGCGCCUGCGCCGAUGUAGGUGUAGGGACUAGACGGCACCCACCUAAGGCCAACGAUAUGGUGAAGGCAUAGUCUAGGGAGUGGCGAAAGUCACACAAACCGG, the reverse-splicing fitness turned out to be 0.00834.

Turning to GUGCCUUGCGCCGGGAAACCACGCAAGGGAUGGUGUCAAAUUCGGCGAAACCUAAGCGCCCGCCCGGGCGUAUGGCAACGCAGAGCCAAGCUUCGGCGCCUGCGCCGAUGUAGGUGUAGGGACUAGACGGCACCCACCUAAGGCCAACGAUAUGGUGAAGGCAUAGUCGAGGGAGUGGCGAAAGUCACACAAACCGG, the reverse-splicing fitness is 0.00858.

Regarding GUGCCUUGCGCCGGGAAACCACGCAAGGGAUGGUGUCAAAUUCGGCGAAACCUAAGCGCCCGCCCGGGCGUAUGGCAACGCAGAGCCAAGCUUCGGCGCCUGCGCCGAUGUAGGUGUAGGGACUAGACGGCACCCACCUAAGGCCAACGAUAUGGUGAAGGCAUAGUCUAGGGAGGGGCGAAAGUCACACAAACCGG, the reverse-splicing fitness is 0.0059.

Turning to GUGCCUUGCGCCGGGAAACCACGCAAGGGAUGGUGUCAAAUUCGGCGAAACCUAAGCGCCCGCCCGGGCGUAUGGCAACGCAGAGCCAAGCUUCGGCGCCUGCGCCGAUGUAGGUGUAGGGACUAGACGGCACCCACCUAAGGCCAACGAUAUGGUGAAGGCAUAGUCUAGGGAGAGGCGAAAGUCACACAAACCGG, the reverse-splicing fitness stood at 0.0189.

As to GUGCCUUGCGCCGGGAAACCACGCAAGGGAUGGUGUCAAAUUCGGCGAAACCUAAGCGCCCGCCCGGGCGUAUGGCAACGCAGAGCCAAGCUUCGGCGCCUGCGCCGAUGUAGGUGUAGGGACUAGACGGCACCCACCUAAGGCCAACGAUAUGGUGAAGGCAUAGUCUAGGGAGCGGCGAAAGUCACACAAACCGG, the reverse-splicing fitness stood at 0.0122.

As for GUGCCUUGCGCCGGGAAACCACGCAAGGGAUGGUGUCAAAUUCGGCGAAACCUAAGCGCCCGCCCGGGCGUAUGGCAACGCAGAGCCAAGCUUCGGCGCCUGCGCCGAUGUAGGUGUAGGGACUAGACGGCACCCACCUAAGGCCAACGGUAUGGUGAAGGCAUAGUCAAGGGAGUGGCGAAAGUCACACAAACCGG, the reverse-splicing fitness turned out to be 0.00846.

Regarding GUGCCUUGCGCCGGGAAACCACGCAAGGGAUGGUGUCAAAUUCGGCGAAACCUAAGCGCCCGCCCGGGCGUAUGGCAACGCAGAGCCAAGCUUCGGCGCCUGCGCCGAUGUAGGUGUAGGGACUAGACGGCACCCACCUAAGGCCAACGGUAUGGUGAAGGCAUAGUCGAGGGAGUGGCGAAAGUCACACAAACCGG, the reverse-splicing fitness came to 0.00674.

Take GUGCCUUGCGCCGGGAAACCACGCAAGGGAUGGUGUCAAAUUCGGCGAAACCUAAGCGCCCGCCCGGGCGUAUGGCAACGCAGAGCCAAGCUUCGGCGCCUGCGCCGAUGUAGGUGUAGGGACUAGACGGCACCCACCUAAGGCCAACGGUAUGGUGAAGGCAUAGUCUAGGGAGUGGCGAAAGUCACACAAACCGG: the reverse-splicing fitness was 0.00766.

Take GUGCCUUGCGCCGGGAAACCACGCAAGGGAUGGUGUCAAAUUCGGCGAAACCUAAGCGCCCGCCCGGGCGUAUGGCAACGCAGAGCCAAGCUUCGGCGCCUGCGCCGAUGUAGGUGUAGGGACUAGACGGCACCCACCUAAGGCCAACGAUAUGGUGAAGGCAUAGUCGAGGGAGAGGCGAAAGUCACACAAACCGG: the reverse-splicing fitness was found to be 0.0253.

As for GUGCCUUGCGCCGGGAAACCACGCAAGGGAUGGUGUCAAAUUCGGCGAAACCUAAGCGCCCGCCCGGGCGUAUGGCAACGCAGAGCCAAGCUUCGGCGCCUGCGCCGAUGUAGGUGUAGGGACUAGACGGCACCCACCUAAGGCCAACGAUAUGGUGAAGGCAUAGUCGAGGGAGGGGCGAAAGUCACACAAACCGG, the reverse-splicing fitness was 0.00564.

On to GUGCCUUGCGCCGGGAAACCACGCAAGGGAUGGUGUCAAAUUCGGCGAAACCUAAGCGCCCGCCCGGGCGUAUGGCAACGCAGAGCCAAGCUUCGGCGCCUGCGCCGAUGUAGGUGUAGGGACUAGACGGCACCCACCUAAGGCCAACGAUAUGGUGAAGGCAUAGUCGAGGGAGCGGCGAAAGUCACACAAACCGG, for which the reverse-splicing fitness was found to be 0.0151.

In the case of GUGCCUUGCGCCGGGAAACCACGCAAGGGAUGGUGUCAAAUUCGGCGAAACCUAAGCGCCCGCCCGGGCGUAUGGCAACGCAGAGCCAAGCUUCGGCGCCUGCGCCGAUGUAGGUGUAGGGACUAGACGGCACCCACCUAAGGCCAACGAUAUGGUGAAGGCAUAGUCAAGGGAGAGGCGAAAGUCACACAAACCGG, the reverse-splicing fitness was found to be 0.0128.

With GUGCCUUGCGCCGGGAAACCACGCAAGGGAUGGUGUCAAAUUCGGCGAAACCUAAGCGCCCGCCCGGGCGUAUGGCAACGCAGAGCCAAGCUUCGGCGCCUGCGCCGAUGUAGGUGUAGGGACUAGACGGCACCCACCUAAGGCCAACGAUAUGGUGAAGGCAUAGUCAAGGGAGGGGCGAAAGUCACACAAACCGG, the reverse-splicing fitness was found to be 0.00551.

On to GUGCCUUGCGCCGGGAAACCACGCAAGGGAUGGUGUCAAAUUCGGCGAAACCUAAGCGCCCGCCCGGGCGUAUGGCAACGCAGAGCCAAGCUUCGGCGCCUGCGCCGAUGUAGGUGUAGGGACUAGACGGCACCCACCUAAGGCCAACGAUAUGGUGAAGGCAUAGUCAAGGGAGCGGCGAAAGUCACACAAACCGG, for which the reverse-splicing fitness is 0.00664.
